Test results from publication PMC4940744, “Iron(II) supramolecular helicates interfere with the HIV-1 Tat–TAR RNA interaction critical for viral replication”.

Target: T1, ADP-1 polypeptide (Tat RNA-binding region) (HIV-1, UniProt P04608 37-72)
T1 chain: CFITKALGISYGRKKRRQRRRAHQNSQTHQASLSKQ
Experiment: EMSA; no helicate; EMSA: 50 mM Tris-HCl pH 8.0, 50 mM KCl, 100 mM DTT, 0.05% Triton X-100, 10 min on ice; 15% PAA gel, 0.5x TB, 5 C
Conditions: label: 5'-32P; hairpin with 3-nt UCU bulge

GGCCAGAUCUGAGCCUGGGAGCUCUCUGGCC (structured_RNA) [TAR RNA]: binds.
